T1: MPP7, Q5T2T1
T1 sequence (Q5T2T1 134-230, limits assumed, looked up): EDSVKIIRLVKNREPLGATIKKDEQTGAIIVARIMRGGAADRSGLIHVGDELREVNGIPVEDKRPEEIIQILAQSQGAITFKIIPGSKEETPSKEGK

T2: SNTG2, Q9NY99
T2 sequence (Q9NY99 68-166, limits assumed, looked up): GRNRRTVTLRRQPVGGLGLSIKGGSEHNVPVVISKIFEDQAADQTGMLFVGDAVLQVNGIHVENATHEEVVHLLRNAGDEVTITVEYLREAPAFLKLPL

T3: LNX2_3, Q8N448
T3 sequence (Q8N448 463-564, limits assumed, looked up): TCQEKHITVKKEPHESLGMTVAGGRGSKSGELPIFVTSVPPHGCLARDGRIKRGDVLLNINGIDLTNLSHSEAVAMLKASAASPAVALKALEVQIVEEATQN

T4: SIPA1L2, Q9P2F8
T4 sequence (Q9P2F8 945-1036, limits assumed, looked up): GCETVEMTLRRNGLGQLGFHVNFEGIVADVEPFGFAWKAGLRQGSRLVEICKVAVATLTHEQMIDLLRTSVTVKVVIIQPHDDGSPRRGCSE

T5: ARHGEF11, O15085
T5 sequence (O15085 42-136, limits assumed, looked up): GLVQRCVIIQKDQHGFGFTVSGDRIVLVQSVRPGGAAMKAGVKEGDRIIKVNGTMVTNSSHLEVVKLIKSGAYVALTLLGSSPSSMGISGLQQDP

T6: HTRA4, P83105
T6 sequence (P83105 378-476, limits assumed, looked up): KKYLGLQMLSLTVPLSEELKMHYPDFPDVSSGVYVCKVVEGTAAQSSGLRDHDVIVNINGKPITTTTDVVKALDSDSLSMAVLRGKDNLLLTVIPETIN

T7: HTRA3, P83110
T7 sequence (P83110 354-453, limits assumed, looked up): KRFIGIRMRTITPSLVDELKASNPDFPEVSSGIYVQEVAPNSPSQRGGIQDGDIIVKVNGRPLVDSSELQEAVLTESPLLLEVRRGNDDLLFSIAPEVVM

T8: SNTG1, Q9NSN8
T8 sequence (Q9NSN8 52-150, limits assumed, looked up): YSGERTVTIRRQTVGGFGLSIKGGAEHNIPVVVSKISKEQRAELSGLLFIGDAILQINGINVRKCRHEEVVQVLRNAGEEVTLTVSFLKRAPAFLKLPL

T9: PARD3B_1, Q8TEW8
T9 sequence (Q8TEW8 196-299, limits assumed, looked up): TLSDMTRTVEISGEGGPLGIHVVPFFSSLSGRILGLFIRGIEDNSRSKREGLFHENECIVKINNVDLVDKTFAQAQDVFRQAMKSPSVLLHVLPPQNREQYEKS

T10: PCLO, Q9Y6V0
T10 sequence (Q9Y6V0 4491-4600, limits assumed, looked up): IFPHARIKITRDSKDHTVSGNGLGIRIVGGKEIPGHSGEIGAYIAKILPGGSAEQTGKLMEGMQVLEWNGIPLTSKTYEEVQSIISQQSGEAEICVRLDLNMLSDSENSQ

T11: SNTA1, Q13424
T11 sequence (Q13424 82-180, limits assumed, looked up): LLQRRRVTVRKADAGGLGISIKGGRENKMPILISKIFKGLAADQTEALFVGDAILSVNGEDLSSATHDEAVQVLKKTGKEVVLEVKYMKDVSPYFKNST

T12: SYNJ2BP, P57105
T12 sequence (P57105 8-110, limits assumed, looked up): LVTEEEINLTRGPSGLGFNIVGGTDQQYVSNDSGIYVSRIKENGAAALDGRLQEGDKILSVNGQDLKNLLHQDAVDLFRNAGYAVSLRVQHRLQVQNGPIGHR


Tests used:
Experiment in all cases: holdup assay
Parameters in all cases: key: below the threshold = too weak to quantify, mostly under pKd 3.1 to 4
Conditions in all cases: plain residues with an end cap or a label only (N-terminal biotin on a linker: ado-ado)
Inadl_4, Q8NI35 = target: Inadl_4, Q8NI35
Inadl_4, Q8NI35, sequence (Q8NI35 547-651): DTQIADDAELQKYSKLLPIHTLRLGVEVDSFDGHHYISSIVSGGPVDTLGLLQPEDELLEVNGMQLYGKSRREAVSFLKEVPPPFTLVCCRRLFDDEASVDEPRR

MAST1, Q9Y2H9 = target: MAST1, Q9Y2H9
MAST1, Q9Y2H9, sequence (Q9Y2H9 962-1065): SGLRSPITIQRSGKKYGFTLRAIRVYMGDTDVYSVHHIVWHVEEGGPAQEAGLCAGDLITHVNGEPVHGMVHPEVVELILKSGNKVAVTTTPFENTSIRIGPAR

MPP7, Q5T2T1 = target: T1, MPP7, Q5T2T1
PARD3_3, Q8TEW0 = target: PARD3_3, Q8TEW0
PARD3_3, Q8TEW0, sequence (Q8TEW0 582-685): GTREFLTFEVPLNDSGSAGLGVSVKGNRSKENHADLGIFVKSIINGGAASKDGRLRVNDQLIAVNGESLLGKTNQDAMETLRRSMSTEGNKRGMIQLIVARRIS

ARHGEF12, Q9NZN5-2 = target: ARHGEF12, Q9NZN5-2
ARHGEF12, Q9NZN5-2, sequence (Q9NZN5 other isoform, or with tags, fused parts or gaps): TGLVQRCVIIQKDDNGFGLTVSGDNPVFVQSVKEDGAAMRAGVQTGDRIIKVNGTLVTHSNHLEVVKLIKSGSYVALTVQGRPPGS

SNTG2, Q9NY99 = target: T2, SNTG2, Q9NY99
LNX2_3, Q8N448 = target: T3, LNX2_3, Q8N448
SIPA1L2, Q9P2F8 = target: T4, SIPA1L2, Q9P2F8
MAGI2_5, Q86UL8 = target: MAGI2_5, Q86UL8
MAGI2_5, Q86UL8, sequence (Q86UL8 915-1017): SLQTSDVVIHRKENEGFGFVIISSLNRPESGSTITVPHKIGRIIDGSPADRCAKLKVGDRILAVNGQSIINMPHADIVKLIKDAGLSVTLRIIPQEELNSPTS

ARHGEF11, O15085 = target: T5, ARHGEF11, O15085
NHERF4_1, Q86UT5-2 = target: NHERF4_1, Q86UT5-2
NHERF4_1, Q86UT5-2, sequence (Q86UT5 other isoform, or with tags, fused parts or gaps): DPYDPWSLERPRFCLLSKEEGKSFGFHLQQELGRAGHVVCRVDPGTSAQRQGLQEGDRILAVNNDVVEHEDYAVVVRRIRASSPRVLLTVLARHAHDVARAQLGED

HTRA4, P83105 = target: T6, HTRA4, P83105
HTRA3, P83110 = target: T7, HTRA3, P83110
TJP1_2, Q07157 = target: TJP1_2, Q07157
TJP1_2, Q07157, sequence (Q07157 181-274): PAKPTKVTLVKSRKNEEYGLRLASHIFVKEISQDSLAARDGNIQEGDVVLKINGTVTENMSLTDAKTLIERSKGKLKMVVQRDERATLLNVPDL

SNTG1, Q9NSN8 = target: T8, SNTG1, Q9NSN8
PARD3B_1, Q8TEW8 = target: T9, PARD3B_1, Q8TEW8
Inadl_9, Q8NI35 = target: Inadl_9, Q8NI35
Inadl_9, Q8NI35, sequence (Q8NI35 1530-1615): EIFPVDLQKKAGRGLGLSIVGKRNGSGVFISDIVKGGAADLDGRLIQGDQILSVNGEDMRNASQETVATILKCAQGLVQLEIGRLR

PCLO, Q9Y6V0 = target: T10, PCLO, Q9Y6V0
Inadl_3, Q8NI35 = target: Inadl_3, Q8NI35
Inadl_3, Q8NI35, sequence (Q8NI35 359-469): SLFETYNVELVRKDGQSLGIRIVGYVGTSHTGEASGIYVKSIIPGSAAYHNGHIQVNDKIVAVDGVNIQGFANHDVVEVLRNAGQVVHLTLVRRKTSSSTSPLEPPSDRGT

IL16_1, Q14005 = target: IL16_1, Q14005
IL16_1, Q14005, sequence (Q14005 210-306): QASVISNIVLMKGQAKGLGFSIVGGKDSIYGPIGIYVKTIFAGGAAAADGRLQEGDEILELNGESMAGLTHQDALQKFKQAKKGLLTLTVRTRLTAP

NOS1, P29475 = target: NOS1, P29475
NOS1, P29475, sequence (P29475 9-101): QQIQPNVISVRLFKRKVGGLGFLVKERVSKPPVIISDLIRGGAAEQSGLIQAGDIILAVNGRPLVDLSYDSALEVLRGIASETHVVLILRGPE

SNTA1, Q13424 = target: T11, SNTA1, Q13424
SCRIB_2, Q14160 = target: SCRIB_2, Q14160
SCRIB_2, Q14160, sequence (Q14160 857-960): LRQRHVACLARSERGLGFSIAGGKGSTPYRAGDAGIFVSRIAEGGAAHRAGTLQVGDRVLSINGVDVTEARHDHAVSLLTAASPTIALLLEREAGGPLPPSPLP

SYNJ2BP, P57105 = target: T12, SYNJ2BP, P57105
NHERF2_2, Q15599 = target: NHERF2_2, Q15599
NHERF2_2, Q15599, sequence (Q15599 142-238): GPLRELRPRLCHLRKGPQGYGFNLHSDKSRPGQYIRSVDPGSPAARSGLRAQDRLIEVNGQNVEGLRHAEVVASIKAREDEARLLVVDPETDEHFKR

DLG2_2, Q15700 = target: DLG2_2, Q15700
DLG2_2, Q15700, sequence (Q15700 189-283): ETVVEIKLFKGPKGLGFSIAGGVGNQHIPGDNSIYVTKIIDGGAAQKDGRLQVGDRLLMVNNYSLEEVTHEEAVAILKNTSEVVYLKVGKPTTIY

Binder	pKd (Inadl_4, Q8NI35)	pKd (MAST1, Q9Y2H9)	pKd (MPP7, Q5T2T1)	pKd (PARD3_3, Q8TEW0)	pKd (ARHGEF12, Q9NZN5-2)	pKd (SNTG2, Q9NY99)	pKd (LNX2_3, Q8N448)	pKd (SIPA1L2, Q9P2F8)	pKd (MAGI2_5, Q86UL8)	pKd (ARHGEF11, O15085)	pKd (NHERF4_1, Q86UT5-2)	pKd (HTRA4, P83105)	pKd (HTRA3, P83110)	pKd (TJP1_2, Q07157)	pKd (SNTG1, Q9NSN8)	pKd (PARD3B_1, Q8TEW8)	pKd (Inadl_9, Q8NI35)	pKd (PCLO, Q9Y6V0)	pKd (Inadl_3, Q8NI35)	pKd (IL16_1, Q14005)	also measured
IPLDGETEEL [MYOZ1, Q9NP98]	below the threshold	4.1	below the threshold	3.97	below the threshold	below the threshold	below the threshold	below the threshold	below the threshold	3.82	4.2	below the threshold	below the threshold	below the threshold	below the threshold	below the threshold	below the threshold	below the threshold	below the threshold	below the threshold	pKd (NOS1, P29475): below the threshold; pKd (SNTA1, Q13424): below the threshold; pKd (SCRIB_2, Q14160): below the threshold; pKd (SYNJ2BP, P57105): below the threshold; pKd (NHERF2_2, Q15599): 3.96; pKd (DLG2_2, Q15700): below the threshold
QMNQTLPVQV [EPHB3, P54753]	below the threshold	3.93	below the threshold	3.51	below the threshold	below the threshold	below the threshold	3.5	below the threshold	4.36	below the threshold	4.36	below the threshold	3.72	below the threshold	3.78	4.34	below the threshold	3.55	below the threshold	pKd (NOS1, P29475): 4.18; pKd (SNTA1, Q13424): below the threshold; pKd (SCRIB_2, Q14160): below the threshold; pKd (SYNJ2BP, P57105): below the threshold; pKd (NHERF2_2, Q15599): 3.51; pKd (DLG2_2, Q15700): below the threshold

The next lines start with results.

pKd (Inadl_4, Q8NI35)	pKd (MAST1, Q9Y2H9)	pKd (MPP7, Q5T2T1)	pKd (PARD3_3, Q8TEW0)	pKd (ARHGEF12, Q9NZN5-2)	pKd (SNTG2, Q9NY99)	pKd (LNX2_3, Q8N448)	pKd (SIPA1L2, Q9P2F8)	pKd (MAGI2_5, Q86UL8)	pKd (ARHGEF11, O15085)	pKd (NHERF4_1, Q86UT5-2)	pKd (HTRA4, P83105)	pKd (HTRA3, P83110)	pKd (TJP1_2, Q07157)	pKd (SNTG1, Q9NSN8)	pKd (PARD3B_1, Q8TEW8)	pKd (Inadl_9, Q8NI35)	pKd (PCLO, Q9Y6V0)	pKd (Inadl_3, Q8NI35)	pKd (IL16_1, Q14005)	Binder	also measured
below the threshold	5.12	below the threshold	3.59	5.07	4.8	below the threshold	below the threshold	4.22	4.41	4.51	below the threshold	below the threshold	below the threshold	4.45	3.95	below the threshold	below the threshold	3.59	3.62	RHGSCVETSL [TMEM151B, Q8IW70]	pKd (NOS1, P29475): 3.84; pKd (SNTA1, Q13424): 4.82; pKd (SCRIB_2, Q14160): 4.43; pKd (SYNJ2BP, P57105): 5.1; pKd (NHERF2_2, Q15599): 4.75; pKd (DLG2_2, Q15700): 4.32
below the threshold	below the threshold	3.64	4.98	3.53	below the threshold	below the threshold	below the threshold	below the threshold	4.07	below the threshold	4.97	4	below the threshold	below the threshold	3.62	3.48	below the threshold	4.8	below the threshold	DDEDRLVIEI [ZNF831, Q5JPB2]	pKd (NOS1, P29475): 3.64; pKd (SNTA1, Q13424): below the threshold; pKd (SCRIB_2, Q14160): below the threshold; pKd (SYNJ2BP, P57105): below the threshold; pKd (NHERF2_2, Q15599): below the threshold; pKd (DLG2_2, Q15700): below the threshold
